According to publication PMC5222566, “The Ciliopathy-Associated Cep104 Protein Interacts with Tubulin and Nek1 Kinase” (Structure(London, England:1993), 2017):

Target: tubulin (Cytoskeleton) (UniProt P02550 1-451)
Experiment: SEC-MALS; TOG protein mixed with reconstituted tubulin, each ~42 uM, 1:1; 25 mM Tris-HCl pH 7.5, 100 mM NaCl, 1 mM MgCl2, 1 mM EGTA
Details: both partners purified

B1: human Cep104 TOG domain (Cep104^367-685), wild type (domain or fragment, UniProt O60308 367-685, looked up)
chain: DPHPKINAESLPYDERPLPAIRKHYGEAVVEPEMSNADISDARRGGMLGEPEPLTEKALREASSAIDVLGETLVAEAYCKTWSYREDALLALSKKLMEMPVGTPKEDLKNTLRASVFLVRRAIKDIVTSVFQASLKLLKMIITQYIPKHKLSKLETAHCVERTIPVLLTRTGDSSARLRVTAANFIQEMALFKEVKSLQIIPSYLVQPLKANSSVHLAMSQMGLLARLLKDLGTGSSGFTIDNVMKFSVSALEHRVYEVRETAVRIILDMYRQHQASILEYLPPDDSNTRRNILYKTIFEGFAKIDGRATDAEMRARRK
notes: The crystallised TOG construct (392-676, PDB 5LPH) has other limits; also called WT TOG; source: E. coli Rosetta, purified (Ni-NTA, PreScission cleavage, HiTrap SP); not shown: His6, N-terminal, cleaved
stoichiometry N: 1
